Molecular target: NFAT5 (TonEBP) (UniProt O94916)
Test: co-immunoprecipitation, Western blot
Conditions: reference: EZH2 wild type; sites S21

- binding against the reference: weaker
Substance: EZH2 (from UniProt Q15910) EZH2 S21A

— publication PMC10333326
